Results on eight molecules are retold here after article PMC2816702 (PLoS ONE, 2010).

Values joined by “and” are separate entries in the source; they are usually repeats but may differ in a detail not shown here. Identical values can stand only once.

Series [1] concerns the target Recombinant major apple allergen Mal d 1 (apple) (UniProt P43211). Briefly: native MS; ESI FT-ICR, direct infusion, 10 mM ammonium acetate pH 6.9, allergen (monomer) concentration 9 µM.
Series [2] has as its target Recombinant major celery allergen Api g 1 (celery). In words: native MS; ESI FT-ICR, direct infusion, 10 mM ammonium acetate pH 6.9, allergen (monomer) concentration 10 µM.
In series [3] the target is Recombinant birch pollen profilin Bet v 2 (birch). Briefly: native MS; ESI FT-ICR, direct infusion, 10 mM ammonium acetate pH 6.9, allergen (monomer) concentration 40 µM.
Series [4] concerns the molecule itself. In words: native MS; ESI FT-ICR, direct infusion, 10 mM ammonium acetate pH 6.9, allergen (monomer) concentration 10 µM.
In series [5] the target is T1, Recombinant birch pollen allergen Bet v 1a (birch), P15494.
T1 chain: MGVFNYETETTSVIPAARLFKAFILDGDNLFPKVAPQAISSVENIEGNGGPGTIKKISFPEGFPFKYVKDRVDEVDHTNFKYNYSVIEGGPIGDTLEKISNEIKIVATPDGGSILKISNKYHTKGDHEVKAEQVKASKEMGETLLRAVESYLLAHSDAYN
In words: native MS; ESI FT-ICR, direct infusion, 10 mM ammonium acetate pH 6.9, allergen (monomer) concentration 40 µM. The note with it: remark: other sources report otherwise.

Series [6] deals with the molecule itself. Briefly: native MS; ESI FT-ICR, direct infusion, 10 mM ammonium acetate pH 6.9, allergen (monomer) concentration 8 µM.
The series “native MS” concerns the molecule itself. In words: native MS.

A word on the stoichiometry N: it is a count of units in the complex or per binding partner.

As to “Recombinant major apple allergen Mal d 1 (from UniProt P43211 1-159) (natural protein)”, in series [1], the stoichiometry N was determined as 2. With “Recombinant major celery allergen Api g 1 (natural protein)”, the stoichiometry N in series [2] was found to be 2. For “Recombinant birch pollen profilin Bet v 2 (natural protein)”, the stoichiometry N in series [3] is 2 and 3 and 4.

B1: Recombinant timothy pollen allergen Phl p 6 (natural protein, UniProt P43215 23-132, looked up)
chain: GKATTEEQKLIEDVNASFRAAMATTANVPPADKYKTFEAAFTVSSKRNLADAVSKAPQLVPKLDEVYNAAYNAADHAAPEDKYEAFVLHFSEALRIIAGTPEVHAVKPGA
notes: source: bought: Biomay AG (recombinant)
B1: in series [4], the “stoichiometry N” value is 2 and 3.

B2: Recombinant birch pollen allergen Bet v 1a, P15494 1-160 (natural protein)
chain: T1 chain
For the molecule B2, the stoichiometry N in series [5] amounted to 2.

B3: Recombinant rubber tree allergen Hev b 8 (natural protein)
chain: SWQTYVDDHLMCDIDGHRLTAAAIIGHDGSVWAQSSSFPQFKSDEVAAVMKDFDEPGSLAPTGLHLGGTKYMVIQGEPGAVIRGKKGSGGITVKKTGQALIIGIYDEPLTPGQCNMIVERLGDYLLDQGL
B3: the “stoichiometry N” value in series [4] is 2.

B4: Recombinant Alternaria alternata allergen Alt a 1 (natural protein)
chain: APLESRQDTASCPVTTEGDYVWKISEFYGRKPEGTYYNSLGFNIKATNGGTLDFTCSAQADKLEDHKWYSCGENSFMDFSFDSDRSGLLLKQKVSDDITYVATATLPNYCRAGGNGPKDFVCQGVADAYITLVTLPKSS
notes: as for B1
On to B4, for which the “stoichiometry N” value in series [6] was determined as 2.

B5: Bos d 5 variant A (in native Bos d 5) (natural protein)
chain: LIVTQTMKGLDIQKVAGTWYSLAMAASDISLLDAQSAPLRVYVEELKPTPEGDLEILLQKWENDECAQKKIIAEKTKIPAVFKIDALNENKVLVLDTDYKKYLLFCMENSAEPEQSLVCQCLVRTPEVDDEALEKFDKALKALPMHIRLSFNPTQLEEQCHI
B5: in the series “native MS”, the “abundance ratio among the dimeric species” value turned out to be 18%.
